Experimental data as given in US20250346646A1, “COMPOUNDS USEFUL TO TREAT METABOLIC DISORDERS” (President and Fellows of Harvard College, priority 2016, published 2025).

How the values were obtained:
[1] = test system: HFD-induced obese aP2−/− mice; test: CA33 treatment of HFD-induced obese aP2−/− mice; assay type: in vivo, mouse
Protocol: FIG. 11A is a bar graph showing fasting blood glucose (mg/dL) in HFD-induced obese aP2−/− mice before (open bars) and after CA33 antibody or vehicle treatment for three weeks (solid bars).
The test was performed after 2 weeks of vehicle (triangles) or CA33 antibody treatment (squares) in aP2−/− mice.
Animal care and experimental procedures were performed with approval from animal care committees of Harvard University. Male mice (leptin-deficient (ob/ob) and diet induced obese (DIO) mice with C57BL/6J background) were purchased from The Jackson Laboratory (Bar Harbor, ME) and kept on a 12-hour light/dark cycle. DIO mice with C57BL/6J background were maintained on high-fat diet (60% kcal fat, Research Diets, Inc., D12492i) for 12 to 15 weeks before starting treatment except in clamp studies, for which they were on HFD for 20 weeks. Leptin-deficient (ob/ob) mice were maintained on regular chow diet (RD, PicoLab 5058 Lab Diet). Animals used were 18 to 31 weeks of age for dietary models and 9 to 12 weeks of age for the ob/ob model. In all experiments, at least 7 mice in each group were used, unless otherwise stated in the text. The mice were treated with 150 μl PBS (vehicle) or 1.5 mg/mouse (˜33 mg/kg) anti-aP2 monoclonal antibody in 150 μl PBS by twice weekly subcutaneous injections for 3 to 5 weeks. Before and after the treatment, blood samples were collected from the tail after 6 hours of daytime food withdrawal. Body weights were measured weekly in the fed state. Blood glucose levels were measured weekly after 6 hours of food withdrawal or after 16 hours overnight fast. After 2 weeks of treatment, glucose tolerance tests were performed by intraperitoneal glucose injections (0.75 g/kg for DIO, 0.5 g/kg for ob/ob mice). After 3 weeks of treatment, insulin tolerance tests were performed in DIO mice by intraperitoneal insulin injections (0.75 IU/kg). After 5 weeks of treatment, hyperinsulinemic-euglycemic clamp experiments were performed in DIO mice as previously described (Furuhashi et al., (2007) Nature 447, 959-965; Maeda et al., (2005) Cell metabolism 1, 107-119). […]

aP2 = aP2 (Homo sapiens, UniProt P15090); test: Paranaric acid (lipid) binding to aP2; settings: vs IgG control antibody, over pH
Protocol: FIG. 10F is a line graph showing paranaric acid binding to aP2 (relative fluorescence) vs. pH in the presence of IgG control antibody (circles) or CA33 antibody (squares).
In further analysis, epitope identification based on hydrogen-deuterium exchange mass spectrometry experiments, for example, as described by Pandit et al. (2012) J. Mol. Recognit. […] Co-crystallization of the Fab fragments of CA33 and H3 with aP2 (FIG. 10D) was then conducted. […] Despite the partial blocking of H3 by CA33, we observed that there is in fact no direct overlap of their epitopes. Instead, the significant movement of the region around aP2 Phe58 may partially block binding of one antibody by the other in the competition experiments. In addition, the low affinity of the CA33 Fab can be explained by the crystal structure. Unusually, only one amino acid in the heavy chain of CA33 makes a contact with aP2, and the majority of the contacts are through the light chain (FIGS. 10D and 10E). In contrast, H3-aP2 contact is more conventional, with both Fab chains interacting with aP2. […] H3 does bind directly to the ‘lid’ but has limited activity. Binding of CA33 to lipid-bound aP2 or lipid-free aP2 was also examined using biochemical analysis (Biacore). CA33 binds to both lipid-bound aP2 and lipid-free aP2 with the following affinities: […]

[2] = test system: diet induced obese (DIO) mice; test: Antibody treatment of obese mice on high-fat diet (fasting glucose, GTT, ITT); assay type: in vivo, mouse; settings: obese mice on HFD
Protocol: FIG. 9B is bar graph showing blood glucose levels (mg/dL) at week 0 (open bars) or week 4 (solid bars) in obese mice on a high-fat diet (HFD) treated with vehicle or anti-aP2 monoclonal antibodies CA33, CA13, CA15, CA23, or H3. Blood glucose levels were measured after 6 hours of day-time food withdrawal. *p<0.05, **p<0.01.
The test was performed after 2 weeks of treatment in obese mice on HFD with vehicle (diamonds) or anti-aP2 monoclonal antibodies (0.75 g/kg glucose)(CA33; squares)(CA15; triangles). *p<0.05.
FIG. 12A is a line graph showing glucose levels (mg/dL) vs. time (minutes) in a glucose tolerance test (GTT) following two weeks of selective antibody treatment using high affinity antibodies (CA13, CA15, CA23, and H3) versus vehicle control in high fat diet fed mice.
FIG. 12B is a line graph showing glucose levels (mg/dl) vs. time (minutes) in an insulin tolerance test (ITT) following three weeks of selective antibody treatment using high affinity antibodies (CA13, CA15, CA23, and H3) versus vehicle control in high fat diet fed mice.
Animal care and experimental procedures were performed with approval from animal care committees of Harvard University. Male mice (leptin-deficient (ob/ob) and diet induced obese (DIO) mice with C57BL/6J background) were purchased from The Jackson Laboratory (Bar Harbor, ME) and kept on a 12-hour light/dark cycle. […] Body weights were measured weekly in the fed state. Blood glucose levels were measured weekly after 6 hours of food withdrawal or after 16 hours overnight fast. […]
Twenty-four hours post transfection a bolus feed was added and the temperature was reduced to 32° C. and maintained for the duration of the culture period (12-14 days). […] The UV absorbance peak at A280 nm was collected during elution from the column using 0.1M sodium citrate pH 3.4 elution buffer and then neutralized to pH 7.4 by addition of 2M Tris-HCl pH 8.5. […]

aP2, sequence (P15090 whole entry): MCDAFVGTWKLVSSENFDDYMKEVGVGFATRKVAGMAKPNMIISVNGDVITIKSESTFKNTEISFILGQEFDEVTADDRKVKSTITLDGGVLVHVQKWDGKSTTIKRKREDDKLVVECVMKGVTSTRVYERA

B1: CA33: low-affinity anti-aP2 monoclonal antibody, rabbit-mouse hybrid, produced and purified by UCB; VL Seq. ID 28, VH Seq. ID 41 (antibody, V domains shown)
VH: QSVEESGGRLVTPGTPLTLTCTVSGFSLSTYYMSWVRQAPGKGLEWIGIIYPSGSTYCASWAKGRFTISKASTTVDLKITSPTTEDTATYFCARPDNDGTSGYLSGFGLWGQGTLVTVSS
VL: DVVMTQTPASVSEPVGGTVTIKCQASEDISRYLVWYQQKPGQPPKRLIYKASTLASGVPSRFKGSGSGTDFTLTISDLECDDAATYYCQCTYGTYAGSFFYSFGGGTEVVVE
modifications: Rabbit Ab 909 VH region; Rabbit Ab 909 VL-region
[1]; aP2−/− mice fed a HFD
  Weight: failed to induce any change
[1]; aP2−/− mice fed a HFD, three weeks treatment
  Fasting glucose: failed to induce any change
[1]; obese aP2−/− mice, after 2 weeks of treatment
  Glucose tolerance (GTT): did not affect glucose tolerance
aP2
  Effect on lipid (paranaric acid) binding to aP2: not substantially altered
[2]; 33 mg/kg s.c. twice weekly, week 4 vs week 0, 6 hours food withdrawal
  Fasting blood glucose: significantly decreased
[2]; after 2 weeks of treatment, 0.75 g/kg glucose
  Glucose tolerance (GTT): significantly improved glucose tolerance
[2]; after 3 weeks of treatment
  Insulin sensitivity (insulin tolerance test): markedly improved insulin sensitivity
